Results reported in patent US20120035094A1.

Experiments:
[1] = target: Monoclonal antibody M.Ab.F11; assay: platelet adhesion to immobilized M.Ab.F11 (150 ng/well), BCA protein read-out; peptide at 500 µM
[2] = target: Monoclonal antibody M.Ab.F11; assay: platelet adhesion to immobilized M.Ab.F11 (150 ng/well), BCA protein read-out; peptide at 50 µM

% inhibition of the adhesion of platelets to immobilized M.Ab.F11 [1] | % inhibition of the adhesion of platelets to immobilized M.Ab.F11 [2] | Binder
70% | 60% | SVTVHSSEPEVRIPENNPVKLSC [F11R-peptide 1]
70% | 10% | KSVTREDTGTYTC [F11R-peptide 4]
